# Measured values reported in US11708423B2, “Chimeric engulfment receptor molecules and methods of use” (CERO THERAPEUTICS, INC., priority 2017, dated 2023).
# Key:
# Racl = Racl activation (PAK-PBD pull-down, immunoblot) in CER-transduced Ba/F3 cells; assay type: cell-based; conditions: 2 hours co-culture with thymocytes, compared to CER21
# Source text: The Rho family of GTPases play essential roles in actin assembly during phagocytosis. Inhibition of either Rho GTPase Racl or CDC42 in macrophages results in a complete blockade of FcR-mediated phagocytosis due to defective actin assembly. To investigate induction of phagocytic signal transduction cascades, CER-expressing cells were interrogated for the activation of CDC42 and Racl. […] Ba/F3 cells were transduced with lentiviral vectors comprising CER21 nucleic acid, CER116 nucleic acid, or vector alone (mock). Target thymocyte cells were stained with pHrodo red. CER-transduced Ba/F3 cells were co-cultured with dexamethasone pre-treated thymocytes for 2 hours. The Racl inhibitor NSC23766 (Selleck Chem) was added during the co-culture in appropriate wells. Cells were then collected, solubilized in lysis buffer, and immunoprecipitation was performed on protein lysates to detect phospho-Racl using PAK-PBD agarose beads (Cytoskeleton, Inc.). Immunoprecipitates were eluted and 25 μg of protein was loaded onto SDS-PAGE gradient gels and then probed with monoclonal, mouse anti-Racl primary antibody (Cytoskeleton Inc.) overnight at 4° C., washed, and hybridized with secondary, anti-mouse antibody conjugated to horseradish peroxidase (Jackson Labs) (FIG. 85A). […] Protein gel bands were quantified using ImageJ image processing program, and the proportion of activated Racl was quantified (FIG. 85B). […]
# [1] = system: CER-transduced CD4+ T cells; experiment: Mass cytometry (CyTOF) with viSNE marker analysis of CER-transduced CD4+ T cells; assay type: cell-based, human
# Source text: CD4+ T cells were transduced with lentiviral vector comprising CER104, CER116, or CER117 nucleic acid. CER104 (SEQ ID NO:133) comprises a Tim4 binding domain, Tim4 transmembrane domain, and an engulfment signaling domain comprising a primary engulfment signaling domain comprising a TLR8 signaling domain and a secondary engulfment signaling domain comprising a DAP12 signaling domain. CER116 (SEQ ID NO:143) comprises a Tim4 binding domain, Tim4 transmembrane domain, and an engulfment signaling domain comprising a primary engulfment signaling domain comprising a TRAF6 signaling domain and a secondary engulfment signaling domain comprising a TLR8 signaling domain. CER117 (SEQ ID NO:144) comprises a Tim4 binding domain, Tim4 transmembrane domain, and an engulfment signaling domain comprising a primary engulfment signaling domain comprising a TLR8 signaling domain and a secondary engulfment signaling domain comprising a TRAF6 signaling domain. CER-transduced CD4+ T cells were co-cultured with E7 TCR-transduced CD8+ T cells and HPV+SCC152 target cells and interrogated by mass cytometry (CyTOF) with viSNE for visualization of high dimensional single cell data (FIGS. 82-84). Intact CER-transduced CD4+ T cells are shown in plots displaying tSNE1 (horizontal) and tSNE2 (vertical) axes. 27 intracellular markers were used for the viSNE analysis. Each dot represents a single cell. […] Red represents high expression and blue represents low expression for each marker. Populations of CD4^+ T cells were generated using a clustering algorithm from all 27 markers and overlaid onto the viSNE map. […] Populations of CD4^+ T cells were generated using a clustering algorithm from all 18 markers and overlaid onto the viSNE map (FIG. 83A). […] Color plots by 18 intracellular markers (CD28, CCR7, CD45RA, PD1, CD127, Perforin, CD49d, CD85j, CD38, CD27, Granzyme B, CD57, CD25, CD69, CD154, CD56, HLA-DR, and TCRγδ) show the phenotype across viSNE ‘islands’ (FIG. 83B). Red represents high expression and blue represents low expression for each marker. Highlighted region with arrow indicates cells expressing T cell activation marker CD69. Populations of CD4^+ T cells were generated using a clustering algorithm from 18 intracellular markers (CD28, CCR7, CD45RA, PD1, CD127, Perforin, CD49d, CD85j, CD38, CD27, Granzyme B, CD57, CD25, CD69, CD154, CD56, HLA-DR, and TCRγ6) and overlaid onto the viSNE map. […] Color plots by the 18 intracellular markers show the phenotype across viSNE ‘islands’ (FIG. 84B). Red represents high expression and blue represents low expression for each marker. Highlighted region with arrow indicates cells expressing the naïve T cell marker CD45RA.
# [2] = system: pHrodo-red labeled, dexamethasone treated thymocytes; experiment: Luminal degradation of engulfed thymocytes in CER-transduced Ba/F3 cells (time-lapse imaging); assay type: cell-based
# Procedure: Luminal degradation in CER-transduced cells was also evaluated following engulfment. Ba/F3 cells transduced with CER21 or CER116 were co-cultured with pHrodo-red labeled, dexamethasone treated thymocytes overnight and subsequently purified by FACS. Target cell destruction was visualized by time-lapse imaging and quantified over time (FIG. 85F). […] CER116-harboring Ba/F3 cells (top) catabolize target cells, allowing cells to return to homeostasis and resume immune responsiveness. The addition of a TRAF6 signaling domain to the CER construct promotes rapid destruction of engulfed material.
molecule,measurement,setting,value
"CER116: Tim4 binding and transmembrane domains, TRAF6 primary and TLR8 secondary signaling domains; SEQ ID NO:143 (protein, CER116 protein) MSKGLLLLWLVTELWWLYLTPAASEDTIIGFLGQPVTLPCHYLSWSQSRNSMCWGKGSCPNSKCNAELLRTDGTRIISRKSTKYTLLGKVQFGEVSLTISNTNRGDSGVYCCRIEVPGWFNDVKKNVRLELRRATTTKKPTTTTRPTTTPYVTTTTPELLPTTVMTTSVLPTTTPPQTLATTAFSTAVTTCPSTTPGSFSQETTKGSAFTTESETLPASNHSQRSMMTISTDIAVLRPTGSNPGILPSTSQLTTQKTTLTTSESLQKTTKSHQINSRQTILIIACCVGFVLMVLLFLAFLMSLLNCENSCGSSQSESDCCVAMASSCSAVTKDDSVGGTASTGNLSSSFMEEIQGYDVEFDPPLESKYECPICLMALREAVQTPCGHRFCKACIIKSIRDAGHKCPVDNEILLENQLFPDNFAKREILSLMVKCPNEGCLHKMELRHLEDHQAHCEFALMDCPQCQRPFQKFHINIHILKDCPRRQVSCDNCAASMAFEDKEIHDQNCPLANVICEYCNTILIREQMPNHYDLDCPTAPIPCTFSTFGCHEKMQRNHLARHLQENTQSHMRMLAHHLFYWDVWFIYNVCLAKVKGYRSLSTSQTFYDAYISYDTKDASVTDWVINELRYHLEESRDKNVLLCLEERDWDPGLAIIDNLMQSINQSKKTVFVLTKKYAKSWNFKTAFYLALQRLMDENMDVIIFILLEPVLQHSQYLRLRQRICKSSILQWPDNPKAEGLFWQTLRNVVLTENDSRYNNMYVDSIKQY",Racl signaling (proportion of activated Racl),Racl,enhanced Racl signaling
same,memory formation after antigen encounter,[1]; CD4+ T cells,associated with memory formation after antigen encounter
same,viSNE islands expressing T cell activation marker CD69,[1]; CD4+ T cells after antigen encounter,enrichment of islands expressing the T cell activation marker CD69
same,viSNE islands expressing intracellular marker IFNγ,[1]; CD4+ T cells after co-culture with E7 TCR CD8+ T cells and SCC152 cells,enrichment of islands expressing the intracellular marker IFNγ
same,viSNE islands expressing naïve T cell marker CD45RA within the CCR7+ population,[1]; compared to controls,loss of islands expressing the naïve T cell marker CD45RA
same,time to near complete resolution of luminal contents,[2],≤ 36 h
same,luminal content degradation over time,[2]; FACS purified after overnight co-culture,enhanced CER116 luminal content degradation over time
